Assay results as given in the supplement of paper PMC10567573.
± gives the standard deviation.

Test: protein stability index of a GFP-peptide fusion (GPS, HEK-293T) (PSI 1-6); higher = more stable
[1] = treatment: DMSO, c terminus: a fixed tail appended
[2] = treatment: MLN4924 1 uM, 8 h, c terminus: a fixed tail appended
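Note: 24-mer peptide tiles fused after GFP, lentivirally expressed, FACS-sorted into six equal bins by GFP/DsRed ratio, decoded by Illumina sequencing, PSI is the read-weighted mean bin number.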

Sequence	protein stability index [1]	protein stability index [2]	protein stability index (treatment: DMSO, c terminus: native)	protein stability index (treatment: MLN4924 1 uM, 8 h, c terminus: native)
DEAQGACLQQKQVVAEAQTRVSQL [LRRC45]	5.23 ± 0.12	5.09 ± 0.31		
REMSKTFIIGELHPDDRPKLNKPP [CYB5A]	3.95 ± 0.23	4.05 ± 0.28		
DEGDEPMPIPEDLSTTSGGQQSSK [IKZF1]	5.42 ± 0.65	5.56 ± 0.28		
EINPPPHTMEEEEDDDWGEDTTEE [EIF5]	5.52 ± 0.28	5.34 ± 0.48		
VPMILVGNKCDLEDERVVGKEQGQ [RAP1B]	4.56 ± 0.35	4.72 ± 0.39		
GPSNTSHSSSRDSHLSNGLDPVAE [C2CD2L]	5.337 ± 0.041	5.23 ± 0.089		
SQLSVLSLSGVMLTDVSPEPLQAL [PRAME]	2.36 ± 0.37	2.4 ± 0.3		
FREDGAYEFNPDFLEEAHEWNQKR [N4BP2L1]	4.71 ± 0.16	4.53 ± 0.26		
HGVDLSALRGAAVDEYFRQPVVDT [CARM1]	4.13 ± 0.41	4.29 ± 0.56		
RVEESALRALREKLFAHSSDLLSE [PPEF2]	2.96 ± 0.49	3.27 ± 0.32		
SSWDIDGRATKRRKKSGDLKKAKV [FBXO34]	4.8 ± 0.29	4.79 ± 0.11		
VNSSIKTFFCPNDTYNDMATLFFN [CLCN6]	2.13 ± 0.31	2.26 ± 0.14		
FMTTNVPNVYPAAPQGGMAALNMS [ADD1]	2.73 ± 0.41	2.87 ± 0.36		
SQITDSEHNSSLVSQQTGSPGKQP [ZNF8]	5.33 ± 0.16	5.26 ± 0.23		
FPGRPMGHLSKDVDENDSHEGEDQ [DLC1]	4.7 ± 0.38	5.06 ± 0.31		
QRYEHGRTLKSYLGLTNQSRRYNR [ZNF649]	3.39 ± 0.21	3.59 ± 0.29		
NQLTHTDLKPENILFVNSEFETLY [CLK3]	3.29 ± 0.35	3.27 ± 0.18		
EEMWTFRGKIHAFRGQILGFWEEE [CCDC70]	2.15 ± 0.41	2.35 ± 0.26		
RAPSRRHGVRAKVQPQARKKEMEM [CPN1]	4.39 ± 0.26	4.64 ± 0.082		
KFLEICKLSGFMSKLVPAIQNAHK [TPRG1]	2.27 ± 0.74	2.81 ± 1		
HIDSSCSSFIKTEPSSPASLTDSV [ESRRG]	4.29 ± 0.18	4.23 ± 0.2		
LSLLELLELLLDASALTLVLGGRR [SCNN1D]	2.99 ± 0.95	2.32 ± 0.56		
NQKCQLRLLKTLETSRSHDLEAVV [ATP23]	3.14 ± 0.12	3.3 ± 0.2		

Sequence	protein stability index [1]	protein stability index [2]	protein stability index (treatment: DMSO, c terminus: native)	protein stability index (treatment: MLN4924 1 uM, 8 h, c terminus: native)
NKCSGMRFPLQEENSVTHHEVKCQ [KMT5A]	4.79 ± 0.42	4.61 ± 0.37		
ALKEKEKASWSSLSMDEKVELYRI [COX4I1]	3.65 ± 0.27	3.95 ± 0.23		
ERTGFSIRPVAGYLSPRDFLSGLA [TPH1]	2.25 ± 0.048	2.36 ± 0.35		
PIVNISEVLGPLCLMLLMGTVHCQ [PHTF1]	3.34 ± 0.24	3.17 ± 0.22		
QCFFNGVFLGNKRSLSERTVDKCF [SPATS1]	2.13 ± 0.25	2.34 ± 0.24		
DVAGNLDYKALSYVITHGEEKEE [MYL5]			2.62 ± 0.7	3.56 ± 1.1
CIFDKFECVWNGSDSVIMTGSYNN [PPP2R2B]	2.27 ± 0.34	2.21 ± 0.14		
RQIVSGLKYLHEQEILHRDLKLGN [PLK2]	2.52 ± 0.21	2.7 ± 0.48		
YNLTILDCLQGIRKGLQHGFFDFE [CDC14A]	2.68 ± 1.1	2.71 ± 0.89		
LDMRRDHEEQLQRLKLLKDREVDA [FBF1]	5.08 ± 0.21	4.91 ± 0.3		
GDEISIKKKNTNKQEMGTYLRFIV [ZMYND11]	2.12 ± 0.087	2.12 ± 0.24		
SYTTTTTITAPPSRVLQNGGDKLE [SCD]	4.85 ± 0.23	4.81 ± 0.29		
QGGKDFNVPLSISRLTPGGKAAQA [PDLIM7]	4.23 ± 0.26	4.35 ± 0.15		
QDVTVVGSAGRLLAVGTDLYGQRN [GFOD1]	3.4 ± 0.26	3.63 ± 0.32		
AQAIDFINRCSVLRQLGCKDGKNW [SPOPL]	2.29 ± 0.24	2.58 ± 0.42		
LLSLDPVQDKTPLYSQLLQAYKWS [MED27]	2.04 ± 0.22	1.97 ± 0.2		
PNNSCYSAGIAKLEEGDELQLAIP [TNFSF13B]	4.55 ± 0.12	4.59 ± 0.29		
AHLGEEAHKCLECGKCFSQNTHLT [ZNF263]	3.45 ± 0.34	3.55 ± 0.48		
DYIRRYLPVLRGFPAKYIYDPWNA [CRY1]	2.53 ± 0.5	2.16 ± 0.2		
RWLDESDAEMELRAKEEERLNKLR [HACD3]	4.5 ± 0.3	4.84 ± 0.42		
GSGQRVPALEEAPDSHQKRPQHSH [ELOA2]	5.26 ± 0.17	5.29 ± 0.33		
PQIPVDRGSETTYESSADIAGDEG [TAF7L]	5.46 ± 0.22	5.48 ± 0.32		
SSGHQNRRFSSEDLEDPLGGLLSY [FBF1]	3.6 ± 0.48	3.89 ± 0.36		

Sequence	protein stability index [1]	protein stability index [2]	protein stability index (treatment: DMSO, c terminus: native)	protein stability index (treatment: MLN4924 1 uM, 8 h, c terminus: native)
NVSLGPGVVVEDGVCIRRCTVLRD [GMPPB]	3.54 ± 0.27	3.44 ± 0.29		
ELSRIVLMRHGMEKIWRPNRVFSL [RAB40C]	2.37 ± 0.37	2.63 ± 0.41		
SIERSHRIATETDQIGSEIIEELG [VTI1B]	4.88 ± 0.33	5 ± 0.2		
SNGFPERDPPRPGPSRPAEKPPRP [GCH1]	5 ± 0.1	4.99 ± 0.082		
AQRPGITHGVGLVLRVEQQPHLPL [SCNN1D]	2.59 ± 0.17	2.85 ± 0.15		
RPLARPIKPNEILPPEKGREVAKE [RHOBTB2]	4.91 ± 0.16	4.68 ± 0.66		
YDLEYWAFHDGQRSRLRPRDDLDR [TRIM14]	3.52 ± 0.36	3.69 ± 0.34		
IRCVYILDPWFAGSSNVGINRWRF [CRY1]	3.13 ± 0.51	3.06 ± 0.51		
SLRKSNTLCDVTLRVEQKDFPAHR [KLHL12]	3.58 ± 0.3	3.91 ± 0.38		
SAKDGGPQPPDAPQLVSSAREGSS [PLEKHN1]	5.49 ± 0.19	5.39 ± 0.17		
PGVHRRYSALREESAKDWETSPLP [PPFIA4]	4.04 ± 0.31	4.43 ± 0.27		
HAAASNGQINVVKHLLNLGVEIDE [ANKRD44]	4.06 ± 0.35	4.16 ± 0.25		
LPPYPPYFEGAPFPHPLWLRDTYK [PWWP2B]	2.54 ± 0.39	2.5 ± 0.12		
FESGSVSFLNVTKSSLIWSYPAGS [TRIM43]	2.13 ± 0.41	2.11 ± 0.13		
APRVRTAFTMEQVRTLEGVFQHHQ [VENTX]	3.33 ± 0.22	3.26 ± 0.22		
EMFTKPVVILPCQHNLCRKCASDI [TRIM55]	2.96 ± 0.3	2.83 ± 0.47		
DISPPIFRRGEKLRVISDEGGWWK [SLA]	3.02 ± 0.71	2.87 ± 0.42		
PNIRNMAPNSLSAPTMLHNSSGDF [TRAF3IP2]	4.16 ± 0.34	4.43 ± 0.19		
QLEKPKPVKPVTFSTGIKMGQHIS [MNAT1]	3.36 ± 0.15	3.44 ± 0.41		
EDSDVEMVEDDSRKEMTAACTPRR [MLH1]	5.54 ± 0.3	5.67 ± 0.18		
RMYCSDLLNPNLKDTVICAMKITQ [SPACA3]	2.15 ± 0.42	2.05 ± 0.17		
LLQHLLEACGRCEEVPEAYVDIHT [PYCR3]	2.1 ± 0.48	2.42 ± 0.66		
NENDFYDGAWCAGRNDLQQWIEVD [CPXM2]	4.22 ± 0.46	4.05 ± 0.3		

Sequence	protein stability index [1]	protein stability index [2]	protein stability index (treatment: DMSO, c terminus: native)	protein stability index (treatment: MLN4924 1 uM, 8 h, c terminus: native)
TPEEQGELEPLKGNFDWEAIFDAG [FOXJ1]	5.29 ± 0.28	5.41 ± 0.088		
RTVAIWDVAEGYRKLSLKGHNDWV [WDR88]	2.46 ± 0.38	2.54 ± 0.44		
LMILRRVVNESTVCLMGHERRQTL [TENT5C]	2.33 ± 0.18	2.34 ± 0.32		
INVGGIKYSLPWTTLDEFPLTRLG [KCNG1]	2.17 ± 0.6	2.06 ± 0.13		
ETLITTIDSSSSWWTNWVIPAISA [CYB5A]	2.47 ± 0.63	2.48 ± 0.49		
SAKPASLRLLQHTPSARRNYRIAG [C6orf223]	3.43 ± 0.24	3.75 ± 0.22		
ACALLLTSVDHDRAPVVGVRVNVL [DLC1]	2.33 ± 0.32	2.68 ± 0.36		
TVVREVIFLGFSSLARLQQLLFVI [OR10K2]	3.15 ± 0.73	2.87 ± 0.55		
TWKKNRRQLAYSTVGTPDYIAPEV [STK38L]	3.39 ± 0.2	3.48 ± 0.4		
EPEMAVFLQNAKTLLKKISEASKA [TRIM55]	2.46 ± 0.3	2.25 ± 0.22		
NLIYRSTRHLKRLALMIQSSGNTV [TMEM192]	2.93 ± 0.43	2.67 ± 0.42		
STSLSFLDSCNSLTPKSTPVKTLP [MYBL2]	3.9 ± 0.13	3.97 ± 0.36		
KKALSGLSSRWKNWWIRGILTLTM [CDS1]	2.14 ± 0.091	2.22 ± 0.19		
WMLTRKQFGLLSFFFAVLHAIYSL [STEAP1]	1.95 ± 0.54	2.1 ± 0.27		
LWASQREKEVLRRERAVEWRERAV [ZBED2]	3.15 ± 0.44	3.38 ± 0.11		
HLRPELRSQMQGPRTRARLGANEV [KLHL12]	4.23 ± 0.043	4.22 ± 0.44		
MATQADLMELDMAMEPDRKAAVSH [CTNNB1]	4.78 ± 0.19	4.95 ± 0.15		
AEGDSWEEEGFGSSSPVKSPAAPY [WEE1]	5.28 ± 0.13	5.19 ± 0.22		
RLVQLLVRAHQDTQRRTSMGGTQQ [CTNNB1]	2.23 ± 0.25	2.54 ± 0.54		
QAVVLCSKKTFQITKQGDGVDFLS [USP39]	2.57 ± 0.18	2.77 ± 0.38		
